Earlier results in patent publication US20100267610A1, “Polypeptide comprising a knottin protein moiety” (priority 2007, published 2010).
Where no end group is shown, it is not given here.

Target: T1, PTH-1 receptor (P1R) (Homo sapiens, UniProt Q03431)
T1 sequence (Q03431 27-593): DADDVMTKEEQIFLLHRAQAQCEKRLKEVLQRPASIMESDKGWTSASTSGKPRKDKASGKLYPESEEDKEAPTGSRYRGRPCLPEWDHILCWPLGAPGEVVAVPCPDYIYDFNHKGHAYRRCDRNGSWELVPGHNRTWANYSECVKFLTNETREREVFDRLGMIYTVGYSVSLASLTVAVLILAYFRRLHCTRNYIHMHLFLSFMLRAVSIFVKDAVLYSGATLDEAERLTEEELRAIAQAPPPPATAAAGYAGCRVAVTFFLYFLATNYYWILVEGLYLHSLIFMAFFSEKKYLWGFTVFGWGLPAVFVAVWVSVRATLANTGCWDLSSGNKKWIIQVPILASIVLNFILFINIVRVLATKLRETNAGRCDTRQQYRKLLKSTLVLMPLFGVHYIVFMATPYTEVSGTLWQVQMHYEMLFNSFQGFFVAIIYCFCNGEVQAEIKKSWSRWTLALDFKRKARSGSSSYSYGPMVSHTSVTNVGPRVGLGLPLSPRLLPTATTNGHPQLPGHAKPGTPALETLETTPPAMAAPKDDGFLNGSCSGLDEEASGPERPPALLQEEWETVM
Conditions: Shimizu et al. 2000

Substance: PTH (1-14): shorter native analog of PTH, residues 1-14, from the literature (SVSEIQLMHNLGKH-NH2; UniProt P01270 32-45, looked up, fragment)
- activation of cAMP formation in cells: able to activate cAMP formation at high micromolar concentrations
